Experimental data: publication PMC6045382

Target: thrombin (UniProt P00734;P00734 328-363;364-622)
Experiment: 19F NMR

Question: Does GGTTGGTGTGGTTGG (structured_DNA, dT9 replaced by 5-[{3,5-bis(trifluoromethyl)phenyl}ethynyl]-2'-deoxyuridine) [T9 (19F-labeled TBA)] bind?
Answer: Result: binds
